Here are results for one substance from paper PMC2212392.

Where two headings read alike, the source gives them in different places.

Common to all, as to test: SPR
For orientation: Surface plasmon resonance follows binding to a sensor surface in real time, without labels.

Assay [1] deals with soluble mCD2 comprising the extracellular region of mCD2 (mouse) (UniProt P08920).
Assay [2] shares this target. This is another data set of the same source.
The target is the same in assay [3]. The source holds these as a separate data set.

Sequence of UniProt P08920 (P08920 23-203): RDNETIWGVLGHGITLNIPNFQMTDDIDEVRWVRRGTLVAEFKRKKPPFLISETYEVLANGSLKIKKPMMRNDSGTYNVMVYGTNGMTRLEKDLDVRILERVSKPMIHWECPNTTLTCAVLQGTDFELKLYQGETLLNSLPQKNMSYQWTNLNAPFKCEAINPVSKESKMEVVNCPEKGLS

On to “soluble mCD48 (purified monomeric mouse CD48 with a COOH-terminal His-tag) (from UniProt P18181 23-217) (domain or fragment)”, for which the koff was 22 s⁻¹ in assay [1] and > 20 s⁻¹ in assay [2]. Besides, the Kd in assay [2] was 90 µM; in assay [3], 49 µM.

For orientation: koff means the rate constant with which the complex falls apart. Read a high koff as a short-lived complex. One may read the Kd as a measure of binding affinity in units of concentration. Low readings indicate a tighter complex, high ones a looser complex.
